Assay: label from the status in PepcDB records
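Note: failed if final PepcDB status was selected cloned or expressed and not failed if soluble or beyond.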

Sequence | protein production
MSDVIQLAYFAVAVVFILGLKAMSSPVSARKGIVWAGYAMVAATLITLLKPGMENYGLMITAIVLGGAVAWWSGKVVKMTDMPQMVAIYNGMGSGAAAAIAALEFARGSMHGGFAATLAVLGALIGSVAFSGSCIAFAKLQGIMTKAWRLPAQNVVNVALAGIALVLGGAIIFGSTPASEMVIAFFVVALALGAILTSPIGGADMPVVISLLNAFTGLAVGFEGYVLGNPALIVAGIVVGASGTLLTQLMAKAMNRPIKNIIFTPITGAAAGGGEAIGGSMKELSALDGASVMRYASKVIIVPGYGMAVAGAQHKVWEMAQLLEEGGVEVVFAIHPVAGRMPGHMNVLLAEAGVPYDKIFDLEEINADFPQADVALVIGANDVVNPVARTDKSSPIYGMPILNVDMAQNVIVVKRGQGAGYSGIENALFFKDNCRMLYGSAQQIIGEVITHVKALEV | failed
MSDVRTNEAEKRHAHPDFDAARFPADARVRVLARRFPPYHRDSPCLAILDRFLHDPTLSAAAVVDDAMRPVGLIDRYSLVEQFLHPYSRDLYHKHSIAAFMDPEPVIVEADSSIDDLSRIIIDAGMRHMVSGFIVTEDGLYLGIGSGHDLFEEVANRKQNHLYHLAHYDPLTSLPNRLLLNDRLKRACLRGQRGGYRIALLFIDLDRFKLVNDTLGHAAGDQLLQGVAGRFAACVRKVDTVARLGGDEFTVLLEPVQGPDEALAVAAKLAQSLERPFLIQNHEITTSASIGVVLFPEHDATVEGLMRKADAAMYCAKREGRNRFALFTEEMNSTVVERVTLESYLNAALEKGEFCCHFQPQMATADDRIVGVEALLRWTNPVLGRVPPLKFIPVAEDTGLILPLGLWALETACAQQVRWLSQGLPPLRMAVNISPLQFRNREFCDQVRAIVQRTGIRAEHLELELTESAVMADAESSVGILRELRDSGIRLAIDDFGTGYSSLSYLRKFPLDRLKIDRSFVSGIDRIPANELIVKAIVALGGSLGLDVIAEGVETPEELECIERCGCSEYQGFRLSEPLTAEDFAHWFEDSGYV | failed
MSDYLDMLASFGVSSAHPGGMSLSKAVLAKAGIDPEQPILDAGCGTGQTAAYLGQLLFPVTALDADPVMIDKARQRFKKEQLSIPAVRSPLEEMPFQSESFACVLTESVLSFTNIRSALQEIRRILKPGGMLVAIEVCLKEGNALTDEAKKEITEFYGFTALYDEDEWVNVLREEGFSKIDIIPVVLEDAGDPDDAVEMDLSPAISDKDYETMEKHLHYLEKYRDSLDHIIFISHL | failed
MSEAKELIKKMCDLQNSNEEIQKEMAGWSGVVQYKLDGYYFYVEYKSDGTCEFKEGVHSSPTFTVVAPPDFWLAVLKGQEDPVSGFMMGKYRIEGNIMEAQRLAGVIKKFQGKFEL | not failed
MSEALELLGQDIVARAPGVLGHSVAFGELTIVARAASVIDTLTFLRDDAACRFHQLIDLTGVDYPERAARFDVVYHLLSLVKNHRIRLKVSTDEDTPVPSVTPVFPVADWFEREAFDMYGIFFDGHPDLRRILTDYGFHGHPLRKDFPMTGYVEVRYDDELKRVVYEPVKITEFRAFDFLSPWEGAKYALPGDEKAQ | failed
MSEDEAQFHGNYDDYVTYLKRRIRQLELQVRMLEADKERLERELSRLRSEMSRLRQPPAFAGSVIEVLDDDRAIVQNYNGPRFVVRIAPWIDKSKLRPGTRVALDQRTMAIIEILPASKDPAVLGFEVVERPN | failed
MSEDRSSNGQKSWLGKLTQAFVHEPKNRQELLELLREAHQNKLLDSEALAIVEGAIQVADLQVRDIMVPRSQMISIKATQTPREFLPAVIDAAHSRYPVIGESHDDVLGVLLAKDLLPLILKADGDSDDVKKLLRPATFVPESKRLNVLLREFRANHNHMAIVIDEYGGVAGLVTIEDVLEQIVGDIEDEHDVEEDSYIKPLPSGDFLVKALTPVENFNEFFDSAFSDDEFDTVGGLVMNAFGHLPKRNEITEIGAYRFRILSADSRRIHLLRVTPISRP | failed
MSEEKNTAIDLKNLKAGGFIKERGKDLFTVRLRVPGGRLPVGRLKKIAEVAEKYGQGMVHLSVRQSVELININFRDFDAVVAELGEGTQKVASCGARVRVPTACGGCEYNPNGLVDTQKSALEVDEKLFGIPTGHHKFKVGFAGCPFDCPKSATNDVGFQGAVWPVLSADHCIGCGLCAKSCTEDAIAMGDNGKPLFIPANCLYCGDCLKVCPTEAWRAGKKGYTVRIGGKWGRRPLVGTLFAEFLPEDQVVDFIAAVLGWYQEKAEGQGRIRLGDVIRAQGPEALLARLRERFPAFVVNATIAPQAIATQVGKEKQAHDNRLEHHHHHH | not failed
MSEGNRSRSRLLPSLLGLLILLSGLALLAGGIKLASLGGSLYYLLAGIGLALSGLLLLLGKRAALGLYALVLFASTVWALWEVGLDWWQLVPRLALWFVFGLLLWLPWFRRPLLADGPAPLGTAALGVAVVLAGAAAVGSQFTNPGQIVGRIDRDSGMTSTAPAMPDGDWQAYGRTEFGDRYSPLKQITPANVGQLEEAWRIRTGDLPTADDPLELTNENTPLKVNGMLYACTAHSKVLALDPDTGAEIWRFDPQIQSPVGFKGFAHMTCRGVSYYDEEQYARSDVGAPPAALSEAGKAVAASCPRRLFLPTADARLIAINADNGKVCEDFGVKGAVDLTAGIGPFTPGGYYSTSPAAVTRNLVIIGGHVTDNESTNEPSGVIRAFDVHDGKLVWNWDSGNPDETEPLAPGKFYTRNSPNMWSLASVDEKLGQVYLPLGNQMPDQWGGNRTPGAEKFSAGLVALDLNTGKLRWNYQFTHHDLWDMDVGSQPTLLDLKTADGVKPALIAPTKQGSLYVLDRRDGTPIVPIREVPAPQGAVEGDHTAPTQARSDLNLLRPPLTERDMWGSSPFDQMLCRIQFRSLRYEGQYTPPSEQGSLIYPGNVGVFNWGGVSVDPVRQILFTSPNYMAFVSQMVPRDKVPSGSKREGETSGVQPNTGAPYAVIMHPFMSPIGLPCQAPSWGDVAGIDLTTAKVVWQHKNGTSRDNTPVPIGLTVGVPSMGGSITTAGGVAFLSGTLDQYLRAYDVKDGKQLWQARLPAGGQATPMSYTGKDGRQYVLIVAGGHGSFGTRMGDYIIAYALPRQ | failed
MSEGTLFVFTCDRPNGSSVIMCPGGGFLKTNLENEGIDFAEWFTKLGITYIVFKYRMPHGNPDVPEQDTRLALKVVREKFPEFCDKLGVMGASIGGYLATFSATLLPDDEKPDFQILMYPVVSVDDRLTHFPCRERMFGHSYSPDKMEQYSPIEHITSGTPAAFIVAAADDAVVSPLNGIMYAARLQKADIPISLHIYPAGGHGFGYNDSFVYKQEWLQELGEWLAKLLEHHHHHH | failed
MSEKPLISVLMPNYNSEKYLNEAIESILNQTYENFEFIILDDCSTDNSWKIIQEYAKKDKRINIFRNEKNLGRPKTYNRLLNMISNESFFFFFMGSDDVVKENMINIKLNYFNNFEEIDGIGNSIEYVDENLNFIKKREYPLTDRDIRKNFLIFNPISQGGMCLKSNLKNETFNEKYKVCLDYEIWTRLIDKGYTFENLKESLYLYRQQREQAKQKNLKMTLVNTVKIKSKYLFRPQYFSINAFLRFNLEILLLMLPKKLILWVFYKSL | failed
MSELNLSPDKLTVLLMGGSFGAGNIKETLDELLDTDRDFQILVITGKNESLKEKIEKKLMSRYHDKNVCVLGYTDKMNDILASIDVLVSKPGGLTTTEALLKDVPMIVPYYIPGQEEENLDFLSNCGAALRTTKKYNLSILLKVLIDDPSRLEMLKRNIKSIRKSNSAQNIANLILNIISGLEHHHHHH | failed
MSEMAGDSSTSEDKIHKPNRERNVSGELDVFEATRYFSDFNEPTTIEYSRIQIQKQSIVTENRQKRVHPETEEHLPKPRVVVIKPQKKEMTRGGGKKLTSFLNSLLRSAGLKKKSKSAPEVETPRVERMRRKSCVVTTHAADASPLTNAGAWSLNARRRSFDEKDLKKSDQKLNIRFCESLYSDQRVETKDPNAGDKNDVIGGCESDSSSESDLFELDLFAKSNP | failed
MSEPIPPFRYAPIVCSEQSTIVAEFVPEASGVREAGYQSEAELEAAFIKQLQGQAYEYLPITSEAALLANLRRQLEKLNKVTLSDAEWEGFFSTCIAGAHDGIVEKTARIQENHVQVLKRDDGTIKNMCLLDKVNIHNNTLQVMNQYAVEGARANRYDVTVLVNGLPMVHVELKRRGVDIREAFNQINRYQRDSFWAGSGLLDYVQLFVISNGTLTKYYSNTVRAGHVEEQSNKRSKSKTSNSFSFAIWWADAKNQPITELTSFTKTFFAKHSLLNVLTKYCVFNAKRKLLVMRPYQIVAAERILQRIVIATHQQQLGTVAAGGYIWHTTGSGKTLTSFKVAQLACGLGVIDKVLFVVDRKDLDYQTMREYESFQKGAANSNTSTAVLQRQLEDSDVHIIITTIQKLSRFVAKHKQHPVYGAHVVVIFDECHRSQFGDMHTKITRAFQRYHLFGFTGTPIFAENAGSTQNPMRRTTQQTFGDTLHTYTIVDAINDKTVLPFRIDYINTIKSQPNIKDKKVAAIDTERALLAPERIRQIVSYIREHFDQKTKRASIYRHEGQRLAGFNSLLATASIDAAKRYYAELMAQQKELPEARRLKVGLIYSVAANEGGGDGGLGEEEFETEGLDQESRNFLEAAIQDYNALFGTSFDTSADKFQNYYKDVSERLKKRKLDILIVVNMFLTGFDATTLNTLWVDKPLKAHGLIQAYSRTNRILNSVKSYGNIVSFRNLEQETNEALALFGNKDAKGIVLLRPYAEYYKQYEERVGELMAAFPLGKAIVGEAAQKAFITLFGSILRLKNILTAFDDFGGQEILTEREFQDYQSLYLNLYAEFRSASAAEKESINDDVVFEIELIKQVEINVDFILLLVEQYVKKKGTGEDKDIRATIERAIHSSPSLRNKKELIEQFVDAVSMKAKVDAQWQAFVAVKQSQELEGIIAEENLNAEAAREFIGNAFRDGGIPAMGTAITKVLPPVSRFSKNNGHAAKKQAVLDKFATFFERYFGLV | failed
MSEQTSQYLSDSYVEETRFGFWFLRSHTWQHHVLRVAINDLRSLFDGELPRHPVLLDAGCGQGKSFQYLRQVFAPQRLIGLDADPHSLKLSAEEARRQQMQVELIGSDCATLELADASVDLLFCHQTFHHLVEQEKALAEFYRVLKPGGYLLFAESTEAYIDTWVIRWLFRHPMHVQKSAAQYLQMIRQQGFEFGPQNVSYPYLWWSRAKDFGLLERFGLRQPPPVGQREETLVNVVARKPLNPTVVEEGLPA | failed
MSESKEMVRGTFLITISILITKVLGVLFIIPFTALIGGQANMAPFTYAYAPYNIAIAIATAGVPLAASKYVAKYNALGAYKVSQKFYKSSFVVMSITGIVGFLVLYLLAPYIAELTLSRNTHGNNGWTVADITWIIRIISMVVIFIPVLATWRGIFQGYKSMGPTAVSEVTEQIARIVFILVGSYLTLNVFGGTVLQANGIATFAAAIGAIAGILTLWYYWIKRRKNIKKMIDSDTANLNVSYGKMYKEIIAYSIPFVIVSLNFPLFNLVDQFTHNGALNLVGVKPGLQDIFFNMLNMSTNKIVMIPTSLSAGFAVSLIPFITKTYEEGRYAEMHRQIRTSIGVLMFITVPASIGIMALAQPLFTVFYGFDPVVHGHDPNFDGSRLLFYYAPVAILISLLSVTASMLQGIDKQKLTVFIILGSVLIKLILNYPLIMLLHTPGAVLSTAIALLFAICCNFYILKKYANFKFSYSWIHLAKIILISIIMMIGVEVIFFILRLFLEPTRFNYLIIVAIGVIVGAIIYGGITIKTKLADEFLGDIPAKIRRKVKMLR | failed
MSEVEQFATIALISLTAFISPLIADKLRVPVVVLEIVLGMIFGVSFLNVIYASEWLSFLSLFGLIFLMFLAGLEIDADVVLKSGHLKRVVAFFALSLALSVALTALMGLNLFYAIILTNVAVGVVVSVLREIGLEKEDFGQLNIVTALVSDFSTMFLLSIYFITGYLQVAFAFLIILVFLAAYRFGKLVIWHFPDFISRWFSDEPSEIGVRGSLAIMILFVGLSSLLGVEAILGAFLAGVLLSITFRGGKKLYDKLYGMGFGFFIPIFFIKTGSELNITQAGEGIGFILLLLAVSVAVKGIPSLIFASNFGLRRAISMGMLQSTKLSLTIAGVAIGVSSGVITEFESTALVTFTIISCLLSPTLFRFLYPRYLPKTR | failed
